Experiment [1] has as its target T1, human FLT3 on the AML5 cell line (human, UniProt P36888 27-993).
T1 sequence (looked up): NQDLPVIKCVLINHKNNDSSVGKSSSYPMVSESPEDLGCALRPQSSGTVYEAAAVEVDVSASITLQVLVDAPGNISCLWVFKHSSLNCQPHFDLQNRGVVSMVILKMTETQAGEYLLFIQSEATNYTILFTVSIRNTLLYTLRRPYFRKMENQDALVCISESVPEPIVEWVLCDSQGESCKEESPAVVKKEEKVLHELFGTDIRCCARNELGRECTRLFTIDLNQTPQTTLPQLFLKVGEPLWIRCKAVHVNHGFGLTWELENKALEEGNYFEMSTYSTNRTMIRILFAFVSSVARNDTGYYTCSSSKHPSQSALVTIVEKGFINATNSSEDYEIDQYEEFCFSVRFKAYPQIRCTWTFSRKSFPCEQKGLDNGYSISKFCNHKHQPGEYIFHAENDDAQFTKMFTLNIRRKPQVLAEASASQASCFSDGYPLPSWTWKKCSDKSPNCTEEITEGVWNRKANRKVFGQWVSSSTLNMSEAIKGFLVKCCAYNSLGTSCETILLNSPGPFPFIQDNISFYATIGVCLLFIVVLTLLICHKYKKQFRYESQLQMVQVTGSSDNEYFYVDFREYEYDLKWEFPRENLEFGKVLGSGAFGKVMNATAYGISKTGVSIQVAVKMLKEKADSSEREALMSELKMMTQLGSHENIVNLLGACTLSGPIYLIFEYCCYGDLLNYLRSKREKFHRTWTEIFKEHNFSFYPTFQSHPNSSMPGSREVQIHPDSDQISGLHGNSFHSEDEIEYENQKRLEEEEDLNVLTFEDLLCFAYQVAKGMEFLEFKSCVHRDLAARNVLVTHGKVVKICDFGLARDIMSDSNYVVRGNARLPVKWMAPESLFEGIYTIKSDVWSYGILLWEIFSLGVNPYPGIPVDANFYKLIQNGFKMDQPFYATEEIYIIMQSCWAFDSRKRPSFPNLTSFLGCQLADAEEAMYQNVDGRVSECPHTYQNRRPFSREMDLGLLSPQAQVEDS
In words: cell-based or functional assay.

Experiment [2] has as its target T2, recombinant human C1q protein (Fitzgerald) (human, UniProt P02745 23-245; P02746 28-253; P02747 29-245, limits assumed).
T2 construct: also called human recombinant complement protein, C1q
In words: ELISA, test article immobilized, C1q added; text: devoid of C1q binding ability. For orientation: In an ELISA, binding on a coated surface is turned into a signal by an enzyme label.

For experiment [3], the target named is T3, his-tagged recombinant human Flt3 receptor (Sino Biologicals) (human, UniProt P36888 27-541, limits assumed).
T3 construct: Bought protein; also called human recombinant FLT3; not shown: His tag
T3 sequence (looked up): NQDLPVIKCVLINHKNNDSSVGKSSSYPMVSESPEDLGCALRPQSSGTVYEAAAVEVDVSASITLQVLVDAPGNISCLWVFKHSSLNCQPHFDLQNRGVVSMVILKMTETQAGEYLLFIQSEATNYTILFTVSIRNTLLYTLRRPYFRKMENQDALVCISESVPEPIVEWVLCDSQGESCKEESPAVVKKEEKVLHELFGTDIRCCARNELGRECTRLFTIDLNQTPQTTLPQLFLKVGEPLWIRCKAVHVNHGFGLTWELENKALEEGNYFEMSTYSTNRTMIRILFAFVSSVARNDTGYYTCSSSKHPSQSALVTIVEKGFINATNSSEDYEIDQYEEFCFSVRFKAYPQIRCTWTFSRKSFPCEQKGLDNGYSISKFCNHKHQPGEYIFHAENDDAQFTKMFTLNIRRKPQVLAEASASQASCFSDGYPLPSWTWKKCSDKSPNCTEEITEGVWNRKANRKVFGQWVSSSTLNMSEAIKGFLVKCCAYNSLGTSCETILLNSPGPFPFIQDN
Kind of experiment: ELISA; His-tagged recombinant human Flt3 on nickel plate, serially diluted Flt3L-Fc, anti-human (H+L)-HRP, 4PL fit. The procedure:
(§1) Graph is a result of one experiment. Experiment was performed in duplicate. Error bars represent standard deviation of the mean values.
Signal was developed using TMB substrate then quenched prior to reading absorbance at 450 nm on a SpectraMax plate reader.

Experiment [4] addresses T4, recombinant human FcRn (human, UniProt P55899 24-297; P61769 21-119, limits assumed).
T4 construct: a beta-2-microglobulin chain is not mentioned; also called human recombinant FcRn
In words: FcRn ELISA.

Experiment [5] has as its target T4, recombinant human FcRn. In words: ELISA; recombinant human FcRn coated, serially diluted test article, anti-human (H+L)-HRP, 4PL fit. The procedure: as §1
Signal was developed using TMB substrate then quenched prior to reading absorbance at 450-650 nm on a SpectraMax plate reader.

T4 sequence (P55899 24-297 limits assumed, chain 1 of 2): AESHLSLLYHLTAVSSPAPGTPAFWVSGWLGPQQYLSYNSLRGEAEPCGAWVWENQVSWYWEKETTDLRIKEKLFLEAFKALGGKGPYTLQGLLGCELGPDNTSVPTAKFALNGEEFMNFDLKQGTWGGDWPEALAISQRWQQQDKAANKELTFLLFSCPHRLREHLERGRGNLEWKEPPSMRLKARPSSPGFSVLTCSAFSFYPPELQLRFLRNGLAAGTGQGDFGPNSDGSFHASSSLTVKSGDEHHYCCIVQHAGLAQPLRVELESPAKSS
T4 sequence (P61769 21-119 limits assumed, chain 2 of 2): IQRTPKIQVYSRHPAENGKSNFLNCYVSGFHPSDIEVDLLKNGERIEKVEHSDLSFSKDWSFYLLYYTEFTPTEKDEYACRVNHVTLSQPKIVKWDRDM
T2 sequence (P02745 23-245 limits assumed, chain 1 of 3): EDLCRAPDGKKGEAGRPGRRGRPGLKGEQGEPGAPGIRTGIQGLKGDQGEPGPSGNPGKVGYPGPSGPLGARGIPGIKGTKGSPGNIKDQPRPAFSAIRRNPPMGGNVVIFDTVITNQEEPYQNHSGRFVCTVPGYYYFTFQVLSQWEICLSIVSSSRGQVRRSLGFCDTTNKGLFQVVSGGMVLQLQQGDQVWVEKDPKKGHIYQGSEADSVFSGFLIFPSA
T2 sequence (P02746 28-253 limits assumed, chain 2 of 3): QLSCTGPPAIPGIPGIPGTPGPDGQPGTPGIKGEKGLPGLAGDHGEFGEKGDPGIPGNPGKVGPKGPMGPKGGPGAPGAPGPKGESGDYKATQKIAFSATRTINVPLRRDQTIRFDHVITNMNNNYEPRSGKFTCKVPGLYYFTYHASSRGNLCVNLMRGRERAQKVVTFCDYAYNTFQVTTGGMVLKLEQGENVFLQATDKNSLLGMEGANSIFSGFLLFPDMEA
T2 sequence (P02747 29-245 limits assumed, chain 3 of 3): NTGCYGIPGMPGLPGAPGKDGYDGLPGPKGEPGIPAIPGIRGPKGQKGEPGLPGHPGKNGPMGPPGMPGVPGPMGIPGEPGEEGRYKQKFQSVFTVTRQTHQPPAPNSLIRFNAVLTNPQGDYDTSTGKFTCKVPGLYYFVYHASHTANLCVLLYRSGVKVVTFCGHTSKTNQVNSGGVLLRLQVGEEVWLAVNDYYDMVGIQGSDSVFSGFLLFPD

B1: human FLT3-ligand (Δ5 amino acid) human IgG4 (S228P/F234A/L235A/M252Y/S254T/T256E) fusion protein (SEQ ID NO:14) (Fc fusion)
chain: TQDCSFQHSPISSDFAVKIRELSDYLLQDYPVTVASNLQDEELCGGLWRLVLAQRWMERLKTVAGSKMQGLLERVNTEIHFVTKCAFQPPPSCLRFVQTNISRLLQETSEQLVALKPWITRQNFSRCLELQCQPDSSTLPPPWSPRPLEATAESKYGPPCPPCPAPEAAGGPSVFLFPPKPKDTLYITREPEVTCVVVDVSQEDPEVQFNWYVDGVEVHNAKTKPREEQFNSTYRVVSVLTVLHQDWLNGKEYKCKVSNKGLPSSIEKTISKAKGQPREPQVYTLPPSQEEMTKNQVSLTCLVKGFYPSDIAVEWESNGQPENNYKTTPPVLDSDGSFFLYSRLTVDKSRWQEGNVFSCSVMHEALHNHYTQKSLSLSLGK
notes: also called FLT3L ECD (Δ C-term 5aa (PTAPQ)) - hG4 (S228P/F234A/L235A/M252Y/S254T/T256E)
B1: in experiment [1], the “EC50 (nM), AML5 proliferation” value is 0.046 nM. For the same molecule, the binding result in experiment [2] is recorded as “no binding (tested: 94 nM (highest of the titration))”. Also, the half-maximal effective concentration (EC50) (commonly the concentration needed to bring the measured effect to its halfway point) in experiment [3] stood at 920 pM; in experiment [5], 178000 pM. The “fold increase in FcRn binding against SEQ ID NO:6” value in experiment [4] was 2 fold.

B2: human FLT3-ligand human hingeless IgG1 (M252Y/S254T/T256E) fusion protein (SEQ ID NO:9) (Fc fusion)
chain: TQDCSFQHSPISSDFAVKIRELSDYLLQDYPVTVASNLQDEELCGGLWRLVLAQRWMERLKTVAGSKMQGLLERVNTEIHFVTKCAFQPPPSCLRFVQTNISRLLQETSEQLVALKPWITRQNFSRCLELQCQPDSSTLPPPWSPRPLEATAPTAPQGGPSVFLFPPKPKDTLYITREPEVTCVVVDVSHEDPEVKFNWYVDGVEVHNAKTKPREEQYNSTYRVVSVLTVLHQDWLNGKEYKCKVSNKALPAPIEKTISKAKGQPREPQVYTLPPSREEMTKNQVSLTCLVKGFYPSDIAVEWESNGQPENNYKTTPPVLDSDGSFFLYSKLTVDKSRWQQGNVFSCSVMHEALHNHYTQKSLSLSPGK
notes: also called FLT3L ECD-hingeless hG1 (M252Y/S254T/T256E)
Consider B2, for which the “EC50 (nM), AML5 proliferation” value in experiment [1] was 0.037 nM. The binding result in experiment [2] is “no binding (tested: 94 nM (highest of the titration))”. Also, the 50% effective concentration (EC50) in experiment [3] stood at 880 pM; in experiment [5], 61000 pM. Besides, the “fold increase in FcRn binding against SEQ ID NO:1” value in experiment [4] turned out to be 38 fold.

Values taken from patent US20220389394A1 (Gilead, published 2022).
